Assay results from publication PMC8769072 (2022).

T1: MAP1A1836-1851 (Homo sapiens (Human), UniProt P78559)
T1 chain: PSWLADIPPWVPKDRP

T2: ITB3763-778 (Homo sapiens (Human), UniProt P05106)
T2 chain: AKWDTANNPLYKEATS


Key:
MAP1A1836-1851 = biological target: T1, MAP1A1836-1851; experiment: FP competition
ITB3763-778 = biological target: T2, ITB3763-778; experiment: FP competition

| Binder | Kd (MAP1A1836-1851) [µM] | Kd (ITB3763-778) [µM] |
| --- | --- | --- |
| SFN 14-3-3 (protein) MERASLIQKAKLAEQAERYEDMAAFMKGAVEKGEELSCEERNLLSVAYKNVVGGQRAAWRVLSSIEQKSNEEGSEEKGPEVREYREKVETELQGVCDTVLGLLDSHLIKEAGDAESRVFYLKMKGDYYRYLAEVATGDDKKRIIDSARSAYQEAMDISKKEMPPTNPIRLGLALNFSVFHYEIANSPEEAISLAKTTFDEAMADLHTLSEDSYKDSTLIMQLLRDNLTLWTADNAGEEGGEAPQEPQS | 355 |  |
| TLN1 PTB (protein) GVSFFLVKEKMKGKNKLVPRLLGITKECVMRVDEKTKEVIQEWNLTNIKRWAASPKSFTLDFGDYQDGYYSVQTTEGEQIAQLIAGYIDIILK |  | 500 |
